Test results taken from the DeepSol protein solubility set.

assay: soluble on expression in E. coli; label from the status in PepcDB or PDB records

| Sequence | soluble on expression in E. coli |
| --- | --- |
| MAHHHHHHMGKALGMQRAKAQRLRKVVLRGSAAGSRSFLLYAQPTPNMLSETSGAVVDMCTDEFSIDIKEPSPEDAIVVASLTLRKKKMQKWREEKRTAAKPPKRAQSGASTCTLNFNKQETRWPLKISEC | not soluble |
| MAHHHHHHMGKKRFYAVAVGRQTGVFSTWEECQKQVSGFSGARFKSFLTLQEAQAYASGVQDVEPGSVGTSLVADSHTPVLVGVKRALSLDVTLDAVEVDAADDGNEVDDESKQQVLSPEWVEARKREAVVVYVDGACRNNGSRSRERRPRAGFGGFYGDGDSRNFKFPLPAHEPQTNQRAELSALIHVLRVALDSHPCYNLCVYSDSKYTVMGVNSYLHRWERNGFKTAGGGDVANIDLWSQLTKLRNRHLSRCAERFTMEFRFKASLAAIAARAVALQLKHVPGHAGVYGNEMADRLAVEACESPFG | not soluble |
| MAHHHHHHMGQSNGAALAKDTIASEQFLKYQEARHRIVHRAFVKCVVPSSKGKDDGYDLTPEERVCVEEFAILYAGFAKKEFLHFSSLYEQYQRDQYEKMRLEVMQQQARKDIQH | not soluble |
| MAHHHHHHMGSTDGECASSLRGHRMPSWILSHLETESKCLNDTPLVEEEKAPPSVPVTVLKKRFPQGLKILKKAPPKEKIVMPVEEECADSCRSSRPSVSVQSAVPGNGHRIARHTIRFRMSDWANLIEEKKDLVAQAVKEDISEGCGLDIGRILQLELKLTDILVVTFIVDHSHDDGGERPFHARLKVCKFPRTSSLYLLR | soluble |
| MAHHHHHHMGTLEAQTQGPGSMKNYRIESDSFGEIQIEEKFYWGAQTQRSLNNFKISKQKMPKILIRALAILKKCAAQVNYEFGDLEYKIATSIDKAIDRILAGEFEDNFPLVVWQTGSGTQTNMNMNEVIASIANEELTGKKGGKFPVHPNDHVNKGQSSNDSFPTAMHIATVLATKQQLIPALNNLLTYLQDKSKDWDKIIKIGRTHLQDATPLTLKQEFSGYITQIEYALERIEDALKKVYLLAQGGTAVGTGINSKIGFDIKFAQKVAEFTQQPFKTAPNKFESLAAHDALVEFSGTLNTIAVSLMKIANDIRLLGSGPRCGLGELHLPENEPGSSIMPGKVNPTQVEALTMVCTQVMGNHVTVTIAGSNGHLELNVFKPVIIYNILQSIELLSDSVNSFVTHCVKGLEPNIARINTLRDKSLMLVTVLNPHIGYDNAAKIAKEAHKYGITLKEAAKKLNFLSEEEFDKIVVPEKMIS | soluble |
| MAHHHHHHMGTLEAQTQGPGSMNAGLDQVDPIWHSIRAEAEEATRNDPVLGAFLYATILNQPSLEEAVMHRIAERLGHPDVSADILRQTFDTMLEANPEWSHVLRVDIQAVYDRDPAYSRFMDPVLYLKGFHAIQTHRLAHWLYKQGRKDFAYYLQSRSSSIFQTDIHPAARLGSGLFLDHATGLVVGETAVVEDNVSILHGVTLGGTGKSSGDRHPKIRQGVLIGAGAKILGNIQVGQCSKIAAGSVVLKSVPHNVTVAGVPARIIGETGCTEPSRVMDQMLGDGI | soluble |
| MAHHHHHHMGTLEAQTQGPGSMTPAAHPPRAAIADIAGHLPEQVLTNDVLAQLYPDWPAEKILAKTGIRERRIAAPRETAADLAYEAARKLFAQGAVGADQVDFVILCTQAPDYVLPTSACMLQHRLGIPTHAGALDVNLGCSGYVYGLSLAKGLVETGAARCVLLLTADTYSKYLHPLDKSVRTLFGDGASATAVIAEHGELERIGPFVFGTDGRGAPNLIVKAGLFREPKSADSAREHEDASGNVRTDEHLYMNGAEVMAFSLAEVPRAADRLLALAGEPRENIDCFVLHQANRFMLDALRKKMKIPEHKFPVLMEHCGNTVSSTLPLALETMRANGTLARGMRLMLLGFGVGYSWAGCLVNF | soluble |
| MAHHHHHHMHECKDDRVLEKIQQINGYENIKLGDKKVLCDEIWTVTRCDKKFSYWIRYYEEDKNGYSLSVLPTQLKNIYYFLKYYYF | not soluble |
| MAHHHHHHMHIFIYIQYLCFGVNEIIFHKPHKCHFFIYNILEGEKGKKPGFINLSNIMNNHNKYESKGFSASSLNNKSFSMTNDKITCGNEKKEMEGEGILNGSSKVDEEDKNIYNSKNNNNNMNYFNNKKIETKKTLGHKDIFVYVLVAGGDGTVNWVLKEAEYYNINDNNFAIGVIPFGTGNDFAKAFGWKKIDRMLNHSFLFDVLKKIVDQTFKSKVEKHDYWNIHVVLKEQGYFNKINSRTKKKETLLNDDKENLHEMKLCMSNYFSIGIDSRIGRGFERHRQKSAVCNKFIYAVEGFKKVSFKKNTPINLIIDKMINMDNNNDNNDNDNNIDGNDNNNDGNDNNNVIFTTNHNESYPLLKKAMSIICINIPSYSSGNDIWNYTHKIGLILPKNITNDQKEQYQILKKTKQEVGDGILEFVIYQSGVDLGLEFTLKGRAYRVHQGFGPWKLLFKEQKYNVYFQVDGEYYLMSLPDYISIEHYKKINVLKNIL | not soluble |
| MAHHHHHHMIDPVKRDLTNLFLEKREMAKEEIDPRKDWLKRILLNNNTNDLRMFLKASELKTKEGDYCMTCKSNVKQLLYLHTKKNYCHLCEEIFCAYCVKSIDFMKDEKEKYIKIRLCRNCFIYINELKYIINPNLSVDRKAIDLQNSFNDISNCYTNLCSNVPQLNGLVLLCENNKEFLDSFKSEIKQLEEKIQHDVDFLNIMKKKNNFLSDNTLILNKMGKNLLLYLKIIRNKIIPSSIEVLNKTKELLYKK | not soluble |
| MAHHHHHHMIRWAAVLRCGAHGVREDRQALARHHLNLLDKRHWELTTPSRALPVVEVLIRSGVLMDRLEKSSTKPLASLTPSMTKKERSLVQKLSHMLHQASPPTACRVSRNAVEEDEAVRAAYSAACATGACTIDVVVDLAFVRHLRFPLSALMLLELVESRCVKVCWTRGKPCLSKELLDSICDLFAEHEQSLDFRATWWLLSLLGGGTQVRDWPITLSAGKRLFRLCVRRIHYLLPDLPLEDLLLAYVQLARIEGYEKPFIVLGEMERLLLATSSDEYTGVSTNVLLRFMTMPFAVRHADLNLRLCAGWSAASRITEFTQEECLAAFAIVAALHEGCVAESAAAVAALRDWEMLHDALFAQVFCVAHEMTAADCFRILDQSELINVSGWGITVPQMLLEKLKKRILSECTHYAMDECRVPETAELLLRVALGLQALMQRYTVLPSSAADEHAVAECILLLERCITVLPPHG | not soluble |
| MAHHHHHHMIVVSSPKATNYDEWEKQLKARRIIMNCPDEMVVKAMCAWMKRGLEPDKQVECWNMVEKHMEKVGPIPRHIFDEDDYIDRMSAVDDALLSIKPTDVGEHFTLRGSKLWYSEVPSHKLLKVVREITEKGAEVFLNASISADIGFRIADRLEKEMATKDFLLLILRWRDALVSHALEKLGLRAFMYGELVIAIVEGLKELPPPSPSKPRSSVLKVNYQGYPTRAVGLKELQGGVTRIPMEYRVLYIPKVENFPLVDGFFFVDSPRKTLVGLQMTTASAHHKITSTVNLFNERMAEYFNGWEELSRDLSWEMIYIQHALSKEISKWQRCGPVNTENLSDTEKEIVAFWDGRVHQYQFVLTPDFVSKIREMRIQQSWGKGIGKKVREIIGEQSAFRFGKYIGKYFNDFYVCVCAYGV | not soluble |
| MAHHHHHHMIYLIDNEDMIYIEFYRKKDCTFVYKFFNDTLPTGSTLSTSDVSAEYANIKYEINNNSCTVYSCDYSCLLKHKDYITIINNVLDKNLSDEILENYKNEKWLMYTKNDEEKLNLVIESNTLLRIKGKLRHEIIFGIPKKKKIQMQDKLMDRKNSYLVIFRFIREDNIKNFVTQKIKNKIPQNERQEKDCVPINVNEYTSEKLEKMYVLDVYNQIALHFGHTRAYEQEENVVGNRKFDSQDIFVPWYFQQQYKTEGYDDDAEGEGEEEPEKENEKEKEESHKFKPVKKGNMFKILKMKFFFFFYLLHNFRNIYIYNL | soluble |
| MAHHHHHHMKEDESDEPVQKKEYEKTFWEQIGKPKHILAPMVDLSELAFRLLCRNYNCHLTFTPMLHAKNFVEHEKYRKSYFQSCEKDEPVIAQFCGNNSKIILNAIEYIKNEVNAVDLNLGCPQQIAKKGNYGAFLLQKHDEVVNLVSDITNNCNIPITCKIRKIDQDYQKTLNLCYDLQSRNVKMITVHGRTKEEKGTNIKQCDYEIIKIIKERLNIPIIANGSIEHFEDIQKCLNYTKADAVMCAEILLEKPYFFSNQNVHTVDVVNEYYDLFLQYESNTKYLKGHLFKMLYKYFQVHTDLRDMLNNCHSLDDYVNFRSILNEKRSSGVLTESSLSWYRRYRKTE | not soluble |
| MAHHHHHHMKEHSHIIGLGDFFADAKKCWVLLASKSPRRIELMKLMGVSNLYICESGFEENLDKKQFASAEHYVKENALQKGLNVASHVWFGDQANTHSEGNVKEEETKKSTQQGSDSGHLSIGQPENEQHCTDATKKHQVKSLHSTYDPIPKVIISCDTIVTLKDEIIEKPLNKEHAREILKKLSSNIHCVYTAVCIFLHKTKVPITFIEKTDVHFDDLLEQDILEYLNSSEPYDKAGAYSIQGVGCQFIKKINGCYYNVMGLPINKLSKTLTQLCVEGKISA | soluble |
| MAHHHHHHMKINNNEKSYILYQCLKLLIRLHDAGLSHLDLTPENILISDNYEMRLCDLSKSTPIYTYNLRHIKDVNRLYLFESCEPTIAKGAYMPPECWKIYWKYDTMKIKNPLKDLKNITDQEKRKQFYFDVSSADKFMLGVFFFWIWTNGNLWKCSDPLQDEDFFYFVKCDMNFDKFELTRKWPTDLKNIIKVGGAEQRRSG | not soluble |
| MAHHHHHHMKTDDHLSQIHRMCRALGIRPGAPAPLIQPALTLQCPRLHTPMVVHEKPAAKIALPMLLSDSSGDVSYLAGQDSVGTLRMTPPGSPRTPALTSVSNMRHHAHLATSELPVSVLVASALSFVAAWRTEDSACTAQKDLIHCCLKARCDLELEEAGGRHRLNQLLLTVSEQMHRFVVMGEYSKFVVFCVDQEPVWRQAARQLQKENEARLHTTENIYSRFLMEEIAVSDKMRMFQEASDFVVSQGHAAREQRRRAQILAARRRCDRQSAPQETPMPFAPQSHLHPHQHKNESNAAALAGGWTPPQRQRPRDDSTDRRSGSSKERSSKNAKSHSTTEVDRYRQRWRKIIWFLSNGERGKPAPH | not soluble |
| MAHHHHHHMKYNEAQMRFYLLCLNMKQANTKEDKSQKISNSSTIDEIEEEQLYTGPLKIEQLLAKGFVKRDLELLKEGGLQTVECVAYAPMRTLCAIKGISEQKAEKLKKACKELCNSGFCNAIDYHDARQNLIKFTTGSKQLDALLKGGIETGGITELFGEFRTGKSQLCHTLAITCQLPIEQSGGEGKCLWIDTEGTFRPERIVAIAKRYGLHPTDCLNNIAYAKAYNCDHQTELLIDASAMMADARFALLIVDSATALYRSEYIGRGELANRQSHLCRFLRGLQRIADIYGVAVIITNQVVAKVDAMSMFGGHEKIPIGGNIIAHASQTRLYLRKGRGESRICKIYDSPVLPEGEAVFAITEGGIADYEEK | not soluble |
| MAHHHHHHMLCHNVASKVSELLLNRMNCPFLQNVQVRNHKIIKPRNIIKLWKINKGDEVKVISGKDKGKIGEVLSCDKFRNMVKVKGCNLRKIYLDNKFVYIEKKIHYSNVQLIDDFLKTNTKVCIRYTDDNQVIRISKKSGIVIPWPSKTNKEDEFDDVEENPLDTPPQEALKKTYDYKADVKFMNILRQTVNKYNRELS | not soluble |
| MAHHHHHHMLEGPNAEEAKKAILECDGIFVPGGFGKRGVDGKCAAVALARHHNIPYFGVCLGMQVALIQVCREELGWKDANSEEFDPSSTHQIVRIMDCDRHSMGANMHLGARNVHLVEKNSIMSTIYSGADFVVERHRHRYEVNTTYLGQLRGAGVLISGVSDPTFGPHTRVEAIEIPSLRFFLAVQFHPEFVSSPMDPSPPYLAFMAAASKKEYKWPESCAARRVKTL | not soluble |
